Assay results: publication PMC5807055, “Atomic Structure of Type VI Contractile Sheath from Pseudomonas aeruginosa” (Structure(London, England:1993), 2018)

B1: P. aeruginosa TssC1 (H1-T6SS sheath protein), produced in E. coli (natural protein)
chain: MAELSTENLAQGQTTTEQTSEFASLLLQEFKPKTERAREAVETAVRTLAEHALEQTSLISNDAIKSIESIIAALDAKLTAQVNLIMHHADFQQLESAWRGLHYLVNNTETDEQLKIRVLNISKPELHKTLKKFKGTTWDQSPIFKKLYEEEYGQFGGEPYGCLVGDYYFDQSPPDVELLGEMAKISAAMHAPFISAASPTVMGMGSWQELSNPRDLTKIFTTPEYAGWRSLRESEDSRYIGLTMPRFLARLPYGAKTDPVEEFAFEEETDGADSSKYAWANSAYAMAVNINRSFKLYGWCSRIRGVESGGEVQGLPAHTFPTDDGGVDMKCPTEIAISDRREAELAKNGFMPLLHKKNTDFAAFIGAQSLQKPAEYDDPDATANANLAARLPYLFATCRFAHYLKCIVRDKIGSFKEKDEMQRWLQDWILNYVDGDPAHSTETTKAQHPLAAAEVVVEEVEGNPGYYNSKFFLRPHYQLEGLTVSLRLVSKLPSAKEA
notes: TssC1 of the H1-T6SS cluster of Pseudomonas aeruginosa; 498 residues in total (461 traced; M1-A37 not traced); also called VipB/IglB homologue; source: E. coli B834(DE3), co-produced with TssB1 from pET28-B1C1, purified as TssB1C1 tubes (size exclusion chromatography)

Columns and labels:
[1] = molecular target: the molecule itself; assay: cryo-EM structure; TssB1C1 sheaths (1 mg/ml) purified from E. coli, vitrified; helical reconstruction in RELION; contracted sheath with 13-fold symmetry, 3.3 Å; SEC buffer 50 mM Tris-HCl pH 9, 250 mM NaCl, 1 mM EDTA, 5 mM DTT
[2] = molecular target: B1; assay: as above; conditions: both partners purified

Binder | binding result [1] | binding result [2]
B1 | binds | –
P. aeruginosa TssB1 (H1-T6SS sheath protein), produced in E. coli (natural protein, TssB1 of the H1-T6SS cluster of Pseudomonas aeruginosa; 172 residues in total (132 traced; M1-S3 and M136-A172 not traced); also called VipA/IglA homologue; source: E. coli B834(DE3), co-produced with TssC1 from pET28-B1C1, purified as TssB1C1 tubes (size exclusion chromatography)) MGSTTSSQKFIARNRAPRVQIEYDVELYGAEKKVQLPFVMGVMADLAGKPAEPQAAVADRKFLEIDVDNFDARLKAMKPRVAFNVPNVLTGEGNLSLDITFESMDDFSPAAVARKVDSLNKLLEARTQLANLLTYMDGKTGAEEMIMKAIKDPALLQALASAPKPKDDEPQA | – | binds
